Laboratory results reported in PMC7022552, “Structural and Functional Analyses of Human ChaC2 in Glutathione Metabolism” (Biomolecules, 2019).
Values joined by “and” are separate entries in the source; they are usually repeats but may differ in a detail not shown here. Equal values may be shown once.

Columns and labels:
[1] = molecular target: human ChaC2 (wild type) (human) (UniProt Q8WUX2); assay: crystal structure; wild type ChaC2 crystals, hanging drop, 14% PEG 8000, 14% ethylene glycol, 100 mM HEPES pH 7.5, 22 °C; three molecules in the asymmetric unit, each in a crystallographic dimer with a molecule of a nearby asymmetric unit
[2] = molecular target: the molecule itself; assay: SEC; HiLoad 16/600 Superdex 75 pg, 20 mM Tris-HCl pH 7.1, 150 mM NaCl, 5 mM DTT, 2% glycerol, 1 mL/min, calibrated with molecular weight standards

| stoichiometry N [1] | Molecule | stoichiometry N [2] |
| --- | --- | --- |
| 2 | human ChaC2 (wild type) (from UniProt Q8WUX2 1-184) (enzyme) |  |
|  | human ChaC1 (enzyme, UniProt Q9BUX1 1-222, looked up, human ChaC1, cDNA from the Korean Human Gene Bank, cloned into pET-21a between BamHI and XhoI; source: E. coli C41 (DE3), purified (Ni2+ HiTrap Chelating HP, HiTrap Q HP, Superdex 75 pg)) MKQESAAPNTPPTSQSPTPSAQFPRNDGDPQALWIFGYGSLVWRPDFAYSDSRVGFVRGYSRRFWQGDTFHRGSDKMPGRVVTLLEDHEGCTWGVAYQVQGEQVSKALKYLNVREAVLGGYDTKEVTFYPQDAPDQPLKALAYVATPQNPGYLGPAPEEAIATQILACRGFSGHNLEYLLRLADFMQLCGPQAQDEHLAAIVDAVGTMLPCFCPTEQALALV | 2 and 4 |
